Kd data for 1 substance are collected here from paper PMC8264304.

Usually Kd stands for the concentration at which binding is half-saturated. Low readings indicate higher affinity, high ones lower affinity.

This series has as its system MexR (CSP18) (Pseudomonas aeruginosa clinical isolate CSP18). Description: MST. The conditions noted are these: MST: 10 mM Tris, 1 mM DTT, room temperature.

The substance mexR-mexA intergenic region had a dissociation constant Kd of 1100 nM.
